Results as given in patent publication US20210356467.

What was measured:
[1] = molecular target: IKZF1 (Q13422) expressed in-frame upstream to the N-CAT fragment (UniProt Q13422)
[2] = molecular target: CK1a (P48729) expressed in-frame upstream to the N-CAT fragment (UniProt P48729)
[3] = molecular target: GSPT1 (P15170) expressed in-frame upstream to the N-CAT fragment (UniProt P15170)
Sequence of GSPT1 (P15170) expressed in-frame upstream to the N-CAT fragment (P15170 other isoform, or with tags, fused parts or gaps): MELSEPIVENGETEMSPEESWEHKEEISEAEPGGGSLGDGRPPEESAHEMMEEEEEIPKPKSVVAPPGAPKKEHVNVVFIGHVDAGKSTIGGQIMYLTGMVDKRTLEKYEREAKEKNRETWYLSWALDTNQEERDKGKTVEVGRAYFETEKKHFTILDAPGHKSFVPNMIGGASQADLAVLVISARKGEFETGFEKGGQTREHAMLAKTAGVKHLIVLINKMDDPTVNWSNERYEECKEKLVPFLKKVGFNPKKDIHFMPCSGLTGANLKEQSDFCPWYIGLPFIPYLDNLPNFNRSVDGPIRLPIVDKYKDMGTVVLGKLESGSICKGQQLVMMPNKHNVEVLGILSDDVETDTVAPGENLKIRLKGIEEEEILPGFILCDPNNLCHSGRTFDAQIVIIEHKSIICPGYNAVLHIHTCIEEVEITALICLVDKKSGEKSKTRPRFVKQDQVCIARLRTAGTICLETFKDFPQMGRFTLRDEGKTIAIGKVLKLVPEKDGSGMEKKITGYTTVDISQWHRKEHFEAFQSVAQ

Sequence of IKZF1 (Q13422) expressed in-frame upstream to the N-CAT fragment (Q13422 other isoform, or with tags, fused parts or gaps): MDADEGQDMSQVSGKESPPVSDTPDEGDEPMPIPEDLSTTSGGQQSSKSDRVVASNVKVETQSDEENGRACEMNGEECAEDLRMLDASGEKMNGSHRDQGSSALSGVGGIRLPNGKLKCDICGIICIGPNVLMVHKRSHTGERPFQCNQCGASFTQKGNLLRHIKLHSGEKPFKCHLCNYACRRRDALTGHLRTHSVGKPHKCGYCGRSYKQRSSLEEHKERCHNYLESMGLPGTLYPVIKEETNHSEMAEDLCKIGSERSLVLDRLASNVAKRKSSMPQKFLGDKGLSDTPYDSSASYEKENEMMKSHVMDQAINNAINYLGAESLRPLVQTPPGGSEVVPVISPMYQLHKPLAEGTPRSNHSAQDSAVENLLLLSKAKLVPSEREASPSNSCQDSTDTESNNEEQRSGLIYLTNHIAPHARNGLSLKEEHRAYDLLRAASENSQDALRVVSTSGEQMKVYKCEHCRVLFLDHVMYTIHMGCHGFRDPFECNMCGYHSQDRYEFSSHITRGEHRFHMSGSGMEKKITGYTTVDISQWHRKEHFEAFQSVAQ
Sequence of Cereblon-E2 (Ubc4) fusion (chain, as listed by the source): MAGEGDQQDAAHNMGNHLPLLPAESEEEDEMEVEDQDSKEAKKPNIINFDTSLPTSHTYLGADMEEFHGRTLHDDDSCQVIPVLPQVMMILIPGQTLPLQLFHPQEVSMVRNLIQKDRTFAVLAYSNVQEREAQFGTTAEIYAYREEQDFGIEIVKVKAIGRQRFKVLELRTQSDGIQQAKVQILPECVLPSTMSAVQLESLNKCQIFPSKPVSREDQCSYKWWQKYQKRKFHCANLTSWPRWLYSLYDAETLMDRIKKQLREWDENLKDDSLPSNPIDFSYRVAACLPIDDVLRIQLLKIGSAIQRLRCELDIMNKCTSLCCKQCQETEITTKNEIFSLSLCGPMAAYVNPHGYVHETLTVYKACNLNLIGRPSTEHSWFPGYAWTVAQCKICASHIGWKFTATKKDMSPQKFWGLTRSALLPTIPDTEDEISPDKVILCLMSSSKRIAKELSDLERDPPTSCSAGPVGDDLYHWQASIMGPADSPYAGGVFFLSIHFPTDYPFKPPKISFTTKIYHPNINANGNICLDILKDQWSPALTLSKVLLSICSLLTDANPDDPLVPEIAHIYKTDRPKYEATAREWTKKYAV
Sequence of CK1a (P48729) expressed in-frame upstream to the N-CAT fragment (P48729 other isoform, or with tags, fused parts or gaps): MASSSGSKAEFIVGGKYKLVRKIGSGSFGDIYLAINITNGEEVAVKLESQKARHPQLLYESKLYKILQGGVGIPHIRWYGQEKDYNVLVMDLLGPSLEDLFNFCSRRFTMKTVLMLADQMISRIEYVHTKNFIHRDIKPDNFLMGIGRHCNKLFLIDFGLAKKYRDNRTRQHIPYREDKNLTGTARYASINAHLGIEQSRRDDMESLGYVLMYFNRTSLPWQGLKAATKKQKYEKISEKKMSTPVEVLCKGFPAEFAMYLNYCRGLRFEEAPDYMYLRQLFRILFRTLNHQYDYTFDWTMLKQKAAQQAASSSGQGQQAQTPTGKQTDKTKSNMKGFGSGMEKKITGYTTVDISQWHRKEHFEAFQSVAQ

Substance: Cereblon-E2 (Ubc4) fusion
- dose response of E. coli growth (OD600) to TLD and LLD, split-CAT selection [1]: the selection system maintains this well-known optimum characteristic response to TLD and LLD
- growth of E. coli (OD600) under chloramphenicol, split-CAT ubiquitylation selection, with Lenalidomide (LLD) [1]: Thalidomide and Lenalidomide (TLD/LLD) significantly promoted the growth of E. coli that express IKZF1
- growth of E. coli (OD600) under chloramphenicol, split-CAT ubiquitylation selection, with Thalidomide (TLD) [1]: Thalidomide and Lenalidomide (TLD/LLD) significantly promoted the growth of E. coli that express IKZF1
- growth of E. coli (OD600) under chloramphenicol, split-CAT ubiquitylation selection, with Lenalidomide (LLD) [2]: Thalidomide and Lenalidomide (TLD/LLD) significantly promoted the growth of E. coli that express CK1a
- growth of E. coli (OD600) under chloramphenicol, split-CAT ubiquitylation selection, with Thalidomide (TLD) [2]: Thalidomide and Lenalidomide (TLD/LLD) significantly promoted the growth of E. coli that express CK1a
- growth of E. coli (OD600) under chloramphenicol, split-CAT ubiquitylation selection, with CC-885 [3]: CC-885 significantly promoted the growth of E. coli that express GSPT1
